In publication PMC3742808 (Nature structural & molecular biology, 2013):

How the values were obtained:
[1] = molecular target: recombinant human APC/C^CDH1 (Anaphase Promoting Complex/Cyclosome with CDH1) (human, UniProt Q9H1A4;Q9UJX6;P30260;Q9UJX5;Q9UJX4;Q13042;Q9UJX3;Q9UJX2;Q9UM13;Q9NYG5;Q9BS18;P60 …); experiment: enzyme inhibition
[2] = molecular target: recombinant human APC/C (without CDH1) (human, UniProt Q9H1A4;Q9UJX6;P30260;Q9UJX5;Q9UJX4;Q13042;Q9UJX3;Q9UJX2;Q9UM13;Q9NYG5;Q9BS18;P60 …); experiment: enzyme inhibition

Ki [1] [nM]	Ki [2] [nM]	Binder
≤ 2.5	–	EMI1^DLZT (D-box, Linker, ZBR, Tail; C-terminal APC/C inhibitory domain, residues 305-447) (domain or fragment) NNNKFSPHASTREYVMFRTPLASVQKSAAQTSLKKDAQTKLSNQGDQKGSTYSRHNEFSEVAKTLKKNESLKACIRCNSPAKYDCYLQRATCKREGCGFDYCTKCLCNYHTTKDCSDGKLLKASCKIGPLPGTKKSKKNLRRL
–	220 ± 37	EMI1^D(Mut)LZT (EMI1^DLZT with alanines in place of Arg322 and Leu325 of the D-box RxxL motif) (domain or fragment) NNNKFSPHASTREYVMFATPAASVQKSAAQTSLKKDAQTKLSNQGDQKGSTYSRHNEFSEVAKTLKKNESLKACIRCNSPAKYDCYLQRATCKREGCGFDYCTKCLCNYHTTKDCSDGKLLKASCKIGPLPGTKKSKKNLRRL
–	2000 ± 400	EMI1^ZT (ZBR and Tail; residues 363-447) (domain or fragment) SEVAKTLKKNESLKACIRCNSPAKYDCYLQRATCKREGCGFDYCTKCLCNYHTTKDCSDGKLLKASCKIGPLPGTKKSKKNLRRL
